# In patent US6582902B1, “Method for deriving epitopes” (priority 1992, dated 2003):
# B1: D10 RNA: single RNA species selected from the degenerate pool by anti-g10 serum (SEQ ID NO:3); U1 stem II with loop UGGUGGAGCA (nucleic acid)
# chain: GGGCCACCAACGACAUUGGGCGAGGCUUAUCCUGGUGGAGCAGGAUGUGCUGACCCCGUUGAUAUAAAUAGUGCCCAUGGAUC
# modifications: chemistry not given here
# notes: U1 stem II with loop UGGUGGAGCA
# Key:
# anti-g10 serum [1] = assay: Selection of RNA from degenerate pool by immunoprecipitation with anti-g10 serum; format: binding, rabbit; conditions: three cycles, high stringency washing (0.5 M urea)
# From the text: Whereas the g10 peptide is a useful epitope tag for analyzing complexes containing protein, an RNA epitope tag would be equally useful for studying complexes containing RNA. The anti-g10 serum was presented with a degenerate pool of RNA containing 1,048,576 unique species, assuming incorporation of four different nucleotides at 10 randomized loop positions (FIG. 2). These RNAs were transcribed from approximately 1×10^11 molecules of degenerate oligodeoxynucleotide template (D. Tsai et al., Nucl. Acids Res. 19, 4931-4936 (1991)). Assuming that most templates are transcribed at least once, all possible RNA species should be redundantly represented. RNA was prepared by in vitro transcription of PCR-generated templates in accordance with known techniques (D. Tsai et al., Nucl. Acids Res. 19, 4931-4936 (1991)). The transcripts were immunoprecipitated with the anti-g10 serum as follows: Protein A Sepharose beads (Sigma, 4 mg per […]) were washed in NT2 buffer (50 mM Tris [pH 7.4], 150 mM NaCl, 0.05% Nonidet P-40) (C. Query et al., Cell 57, 89-101 (1989)), mixed with […] of anti-g10 serum, incubated on ice for 10 min, and washed in NT2. […]
# anti-g10 serum [2] = assay: Immunoprecipitation of [32P]-labeled in vitro transcribed RNA with anti-g10 serum; format: binding, rabbit; conditions: FIG. 4; compared with protein A Sepharose beads alone and pre-immune serum
# Experimental: Various antisera were used to precipitate either [32P] labeled in vitro transcribed D10 RNA or control transcripts. Bound RNA was analyzed on a denaturing 6% polyacrylamide gel by autoradiography. Lanes 1-4 are precipitations of D10 RNA with the following antisera: 1, anti-g10 serum; 2, preimmune serum; 3, no antibody; 4, anti-g10 serum. Other transcripts were precipitated with the anti-g10 serum as follows: 5, a control RNA identical to the D10 epitope but with loop sequence 5′-CACCAUAUAA-3′(SEQ ID NO:5); 6, an unrelated RNA; 7, an RNA containing the loop sequence 5′-CUGACCCCGU-3′(SEQ ID NO:6); 8-11, supernatants from the immunoprecipitations shown in lanes 4-7, diluted to approximate radioactive equivalents.
# In vitro transcribed [^32P] radiolabeled RNA was immunoprecipitated with anti-g10 serum or with an anti-U1 RNA serum (EW). Bound RNA was analyzed using a denaturing 6% acrylamide gel and autoradiography: Panel A: The D10 DNA construct (FIG. 2) was cloned into the BamHI site of PGEM-3zf (+) to produce tagged vector RNA, and transcripts with different 3′termini were generated with SP6 RNA polymerase. […] For unexplained reasons, a small amount of endogenous U1 RNA was detected in the presence of total HeLa cell extract (lanes 12-14). […]
molecule,measurement,setting,value
B1,isolates obtained after antibody selection,anti-g10 serum [1],45 out of 45
same,binding / recognition of RNA by anti-g10 serum,anti-g10 serum [2],bound only to the anti-g10 serum
